For 74 variants, abundance fitness results are on record in the Human Domainome abundance scans (Beltran et al. 2025).

± gives the uncertainty stated by the source.

B1: Far upstream element-binding protein 1, residues 184 to 257; numbered along this chain, Q96AE4 (parent)
chain: GNAVQEIMIPASKAGLVIGKGGETIKQLQERAGVKMVMIQDGPQNTGADKPLRITGDPYKVQQAKEMVLELIRD

This series covers variants of B1. In words: abundance fitness (aPCA) (normalised: wild type 0, dead -1); higher = more abundant; growth selection in yeast, the domain comes from the species named. Conditions: Homo sapiens.
Regarding GNAVQEIMIPASKAGLVIGKGGETIKQLQERAGVKMVMIQDGPQNTGADKPLRITGDPYKVQQANEMVLELIRD, the abundance fitness is -0.129 ± 0.046.
Then GNAVQEIMIPASKAGLVIGKGGETIKQLQERAGVKMVMIQDGPQNTGADKPLRITGDPYKVQQAIEMVLELIRD, with -0.049 ± 0.048.
Then GNAVQEIMIPASKAGLVIGKGGETIKQLQERAGVKMVMIQDGPQNTGADKPLRITGDPYKVQQAPEMVLELIRD, with -0.709 ± 0.043; and GNAVQEIMIPASKAGLVIGKGGETIKQLQERAGVKMVMIQDGPQNTGADKPLRITGDPYKVQQAVEMVLELIRD, with -0.037 ± 0.031.
Then GNAVQEIMIPASKAGLVIGKGGETIKQLQERAGVKMVMIQDGPQNTGADKPLRITGDPYKVQQAWEMVLELIRD, with -0.439 ± 0.038; and GNAVQEIMIPASKAGLVIGKGGETIKQLQERAGVKMVMIQDGPQNTGADKPLRITGDPYKVQQATEMVLELIRD, with -0.057 ± 0.034; and GNAVQEIMIPASKAGLVIGKGGETIKQLQERAGVKMVMIQDGPQNTGADKPLRITGDPYKVQQAAEMVLELIRD, with -0.064 ± 0.032.
Regarding GNAVQEIMIPASKAGLVIGKGGETIKQLQERAGVKMVMIQDGPQNTGADKPLRITGDPYKVQQASEMVLELIRD, the abundance fitness is -0.102 ± 0.03.
Then GNAVQEIMIPASKAGLVIGKGGETIKQLQERAGVKMVMIQDGPQNTGADKPLRITGDPYKVQQAMEMVLELIRD, with -0.07 ± 0.038; and GNAVQEIMIPASKAGLVIGKGGETIKQLQERAGVKMVMIQDGPQNTGADKPLRITGDPYKVQQAREMVLELIRD, with -0.012 ± 0.027; and GNAVQEIMIPASKAGLVIGKGGETIKQLQERAGVKMVMIQDGPQNTGADKPLRITGDPYKVQQADEMVLELIRD, with -0.577 ± 0.056.
For GNAVQEIMIPASKAGLVIGKGGETIKQLQERAGVKMVMIQDGPQNTGADKPLRITGDPYKVQQAFEMVLELIRD the value was -0.241 ± 0.049; for GNAVQEIMIPASKAGLVIGKGGETIKQLQERAGVKMVMIQDGPQNTGADKPLRITGDPYKVQQAYEMVLELIRD, -0.11 ± 0.054.
Then GNAVQEIMIPASKAGLVIGKGGETIKQLQERAGVKMVMIQDGPQNTGADKPLRITGDPYKVQQACEMVLELIRD, with -0.097 ± 0.04; and GNAVQEIMIPASKAGLVIGKGGETIKQLQERAGVKMVMIQDGPQNTGADKPLRITGDPYKVQQAHEMVLELIRD, with -0.056 ± 0.047; and GNAVQEIMIPASKAGLVIGKGGETIKQLQERAGVKMVMIQDGPQNTGADKPLRITGDPYKVQQAGEMVLELIRD, with -0.086 ± 0.028.
Take GNAVQEIMIPASKAGLVIGKGGETIKQLQERAGVKMVMIQDGPQNTGADKPLRITGDPYKVQQALEMVLELIRD: the abundance fitness is -0.211 ± 0.03.
For GNAVQEIMIPASKAGLVIGKGGETIKQLQERAGVKMVMIQDGPQNTGADKPLRITGDPYKVQQAKEMMLELIRD the value was -0.156 ± 0.034.
Consider GNAVQEIMIPASKAGLVIGKGGETIKQLQERAGVKMVMIQDGPQNTGADKPLRITGDPYKVQQAKEMPLELIRD, for which the abundance fitness was -0.428 ± 0.047.
For GNAVQEIMIPASKAGLVIGKGGETIKQLQERAGVKMVMIQDGPQNTGADKPLRITGDPYKVQQAKEMHLELIRD the value was -0.495 ± 0.055; for GNAVQEIMIPASKAGLVIGKGGETIKQLQERAGVKMVMIQDGPQNTGADKPLRITGDPYKVQQAKEMILELIRD, -0.023 ± 0.044.
For GNAVQEIMIPASKAGLVIGKGGETIKQLQERAGVKMVMIQDGPQNTGADKPLRITGDPYKVQQAKEMALELIRD the value was -0.221 ± 0.033; for GNAVQEIMIPASKAGLVIGKGGETIKQLQERAGVKMVMIQDGPQNTGADKPLRITGDPYKVQQAKEMKLELIRD, -0.41 ± 0.039; for GNAVQEIMIPASKAGLVIGKGGETIKQLQERAGVKMVMIQDGPQNTGADKPLRITGDPYKVQQAKEMQLELIRD, -0.441 ± 0.044.
Take GNAVQEIMIPASKAGLVIGKGGETIKQLQERAGVKMVMIQDGPQNTGADKPLRITGDPYKVQQAKEMGLELIRD: the abundance fitness is -0.48 ± 0.031.
For GNAVQEIMIPASKAGLVIGKGGETIKQLQERAGVKMVMIQDGPQNTGADKPLRITGDPYKVQQAKEMLLELIRD the value was -0.154 ± 0.032; for GNAVQEIMIPASKAGLVIGKGGETIKQLQERAGVKMVMIQDGPQNTGADKPLRITGDPYKVQQAKEMDLELIRD, -0.359 ± 0.041.
For GNAVQEIMIPASKAGLVIGKGGETIKQLQERAGVKMVMIQDGPQNTGADKPLRITGDPYKVQQAKEMELELIRD the value was -0.427 ± 0.035.
On to GNAVQEIMIPASKAGLVIGKGGETIKQLQERAGVKMVMIQDGPQNTGADKPLRITGDPYKVQQAKEMFLELIRD, for which the abundance fitness was -0.658 ± 0.057.
Then GNAVQEIMIPASKAGLVIGKGGETIKQLQERAGVKMVMIQDGPQNTGADKPLRITGDPYKVQQAKEMNLELIRD, with -0.385 ± 0.047; and GNAVQEIMIPASKAGLVIGKGGETIKQLQERAGVKMVMIQDGPQNTGADKPLRITGDPYKVQQAKEMRLELIRD, with -0.562 ± 0.031; and GNAVQEIMIPASKAGLVIGKGGETIKQLQERAGVKMVMIQDGPQNTGADKPLRITGDPYKVQQVKEMVLELIRD, with -0.262 ± 0.032.
Then GNAVQEIMIPASKAGLVIGKGGETIKQLQERAGVKMVMIQDGPQNTGADKPLRITGDPYKVQQSKEMVLELIRD, with -0.228 ± 0.031; and GNAVQEIMIPASKAGLVIGKGGETIKQLQERAGVKMVMIQDGPQNTGADKPLRITGDPYKVQQWKEMVLELIRD, with -1.2 ± 0.07; and GNAVQEIMIPASKAGLVIGKGGETIKQLQERAGVKMVMIQDGPQNTGADKPLRITGDPYKVQQRKEMVLELIRD, with -0.853 ± 0.035.
For GNAVQEIMIPASKAGLVIGKGGETIKQLQERAGVKMVMIQDGPQNTGADKPLRITGDPYKVQQQKEMVLELIRD the value was -0.695 ± 0.049; for GNAVQEIMIPASKAGLVIGKGGETIKQLQERAGVKMVMIQDGPQNTGADKPLRITGDPYKVQQYKEMVLELIRD, -0.98 ± 0.11.
Turning to GNAVQEIMIPASKAGLVIGKGGETIKQLQERAGVKMVMIQDGPQNTGADKPLRITGDPYKVQQTKEMVLELIRD, the abundance fitness is -0.296 ± 0.037.
Then GNAVQEIMIPASKAGLVIGKGGETIKQLQERAGVKMVMIQDGPQNTGADKPLRITGDPYKVQQAKHMVLELIRD, with -0.165 ± 0.051.
Then GNAVQEIMIPASKAGLVIGKGGETIKQLQERAGVKMVMIQDGPQNTGADKPLRITGDPYKVQQAKLMVLELIRD, with -0.092 ± 0.032.
Regarding GNAVQEIMIPASKAGLVIGKGGETIKQLQERAGVKMVMIQDGPQNTGADKPLRITGDPYKVQQAKAMVLELIRD, the abundance fitness is -0.091 ± 0.032.
For GNAVQEIMIPASKAGLVIGKGGETIKQLQERAGVKMVMIQDGPQNTGADKPLRITGDPYKVQQAKWMVLELIRD the value was -0.167 ± 0.032; for GNAVQEIMIPASKAGLVIGKGGETIKQLQERAGVKMVMIQDGPQNTGADKPLRITGDPYKVQQAKGMVLELIRD, -0.046 ± 0.027.
Then GNAVQEIMIPASKAGLVIGKGGETIKQLQERAGVKMVMIQDGPQNTGADKPLRITGDPYKVQQAKMMVLELIRD, with -0.08 ± 0.036; and GNAVQEIMIPASKAGLVIGKGGETIKQLQERAGVKMVMIQDGPQNTGADKPLRITGDPYKVQQAKFMVLELIRD, with -0.18 ± 0.046.
For GNAVQEIMIPASKAGLVIGKGGETIKQLQERAGVKMVMIQDGPQNTGADKPLRITGDPYKVQQAKRMVLELIRD the value was -0.081 ± 0.026; for GNAVQEIMIPASKAGLVIGKGGETIKQLQERAGVKMVMIQDGPQNTGADKPLRITGDPYKVQQAKNMVLELIRD, -0.048 ± 0.043.
For the variant GNAVQEIMIPASKAGLVIGKGGETIKQLQERAGVKMVMIQDGPQNTGADKPLRITGDPYKVQQAKDMVLELIRD, the abundance fitness is -0.002 ± 0.037.
On to GNAVQEIMIPASKAGLVIGKGGETIKQLQERAGVKMVMIQDGPQNTGADKPLRITGDPYKVQQAKKMVLELIRD, for which the abundance fitness is -0.007 ± 0.032.
GNAVQEIMIPASKAGLVIGKGGETIKQLQERAGVKMVMIQDGPQNTGADKPLRITGDPYKVQQAKTMVLELIRD: the abundance fitness is -0.03 ± 0.034.
For the variant GNAVQEIMIPASKAGLVIGKGGETIKQLQERAGVKMVMIQDGPQNTGADKPLRITGDPYKVQQAKCMVLELIRD, the abundance fitness is -0.106 ± 0.039.
Then GNAVQEIMIPASKAGLVIGKGGETIKQLQERAGVKMVMIQDGPQNTGADKPLRITGDPYKVQQAKQMVLELIRD, with -0.07 ± 0.036.
Then GNAVQEIMIPASKAGLVIGKGGETIKQLQERAGVKMVMIQDGPQNTGADKPLRITGDPYKVQQAKPMVLELIRD, with -0.476 ± 0.049; and GNAVQEIMIPASKAGLVIGKGGETIKQLQERAGVKMVMIQDGPQNTGADKPLRITGDPYKVQQAKVMVLELIRD, with -0.072 ± 0.03.
Then GNAVQEIMIPASKAGLVIGKGGETIKQLQERAGVKMVMIQDGPQNTGADKPLRITGDPYKVQQAKIMVLELIRD, with -0.224 ± 0.048; and GNAVQEIMIPASKAGLVIGKGGETIKQLQERAGVKMVMIQDGPQNTGADKPLRITGDPYKVQQAKEPVLELIRD, with -0.455 ± 0.04; and GNAVQEIMIPASKAGLVIGKGGETIKQLQERAGVKMVMIQDGPQNTGADKPLRITGDPYKVQQAKEWVLELIRD, with -0.124 ± 0.033.
Regarding GNAVQEIMIPASKAGLVIGKGGETIKQLQERAGVKMVMIQDGPQNTGADKPLRITGDPYKVQQAKEAVLELIRD, the abundance fitness is -0.03 ± 0.031.
Regarding GNAVQEIMIPASKAGLVIGKGGETIKQLQERAGVKMVMIQDGPQNTGADKPLRITGDPYKVQQAKEHVLELIRD, the abundance fitness is -0.078 ± 0.047.
GNAVQEIMIPASKAGLVIGKGGETIKQLQERAGVKMVMIQDGPQNTGADKPLRITGDPYKVQQAKEYVLELIRD: the abundance fitness is -0.088 ± 0.046.
Then GNAVQEIMIPASKAGLVIGKGGETIKQLQERAGVKMVMIQDGPQNTGADKPLRITGDPYKVQQAKENVLELIRD, with -0.073 ± 0.051.
For the variant GNAVQEIMIPASKAGLVIGKGGETIKQLQERAGVKMVMIQDGPQNTGADKPLRITGDPYKVQQAKEDVLELIRD, the abundance fitness was -0.075 ± 0.042.
Then GNAVQEIMIPASKAGLVIGKGGETIKQLQERAGVKMVMIQDGPQNTGADKPLRITGDPYKVQQAKEKVLELIRD, with -0.111 ± 0.039.
Then GNAVQEIMIPASKAGLVIGKGGETIKQLQERAGVKMVMIQDGPQNTGADKPLRITGDPYKVQQAKESVLELIRD, with -0.078 ± 0.031; and GNAVQEIMIPASKAGLVIGKGGETIKQLQERAGVKMVMIQDGPQNTGADKPLRITGDPYKVQQAKECVLELIRD, with -0.187 ± 0.04; and GNAVQEIMIPASKAGLVIGKGGETIKQLQERAGVKMVMIQDGPQNTGADKPLRITGDPYKVQQAKERVLELIRD, with -0.096 ± 0.026.
Then GNAVQEIMIPASKAGLVIGKGGETIKQLQERAGVKMVMIQDGPQNTGADKPLRITGDPYKVQQAKEFVLELIRD, with -0.117 ± 0.045; and GNAVQEIMIPASKAGLVIGKGGETIKQLQERAGVKMVMIQDGPQNTGADKPLRITGDPYKVQQAKETVLELIRD, with -0.116 ± 0.035; and GNAVQEIMIPASKAGLVIGKGGETIKQLQERAGVKMVMIQDGPQNTGADKPLRITGDPYKVQQAKEVVLELIRD, with -0.126 ± 0.029.
For GNAVQEIMIPASKAGLVIGKGGETIKQLQERAGVKMVMIQDGPQNTGADKPLRITGDPYKVQQAKEIVLELIRD, the abundance fitness was -0.128 ± 0.051.
For GNAVQEIMIPASKAGLVIGKGGETIKQLQERAGVKMVMIQDGPQNTGADKPLRITGDPYKVQQAKEEVLELIRD, the abundance fitness was -0.082 ± 0.035.
With GNAVQEIMIPASKAGLVIGKGGETIKQLQERAGVKMVMIQDGPQNTGADKPLRITGDPYKVQQAKEGVLELIRD, the abundance fitness was -0.177 ± 0.028.
Then GNAVQEIMIPASKAGLVIGKGGETIKQLQERAGVKMVMIQDGPQNTGADKPLRITGDPYKVQQAKEQVLELIRD, with -0.067 ± 0.039; and GNAVQEIMIPASKAGLVIGKGGETIKQLQERAGVKMVMIQDGPQNTGADKPLRITGDPYKVQQAKELVLELIRD, with -0.053 ± 0.029.
